Results published in patent US6001657.

Key:
[1] = tested on: anti-quadruplex monoclonal autoantibody me^v-alphaQ1 (Mus musculus); assay: filter; settings: RIFB, Scatchard, TEP buffer 150 mM KCl, 37 C
[2] = tested on: anti-quadruplex monoclonal autoantibody me^v-alphaQ1 (Mus musculus); assay: FP filter; settings: nitrocellulose filter binding (RIFB), Scatchard; TEP buffer 50 mM Tris pH 7.4, 5 mM EDTA, 150 mM KCl, 37 C; Ka 2.7e6 M^-1 in table (text prints 2.7e5)

CCCCTTTGGGGTTTGGGG [d(C4T3G4T3G4) triplex]
Kd ([1]; Ka 5.0e5 M^-1): 2000 nM

CGCGCGCGCG (double strand) [d(CG5)2 duplex]
Kd ([1]; Ka 3.8e5 M^-1, negative control in screening): 2600 nM

CGCGGGGGCG [d(CGC G4 GCG)4 quadruplex]
Kd ([1]; Ka 1.6e6 M^-1): 630 nM

GGGGTTTGGGGTTTCCCC [d(G4T3G4T3C4) triplex]
Kd ([1]; Ka 6.8e5 M^-1): 1500 nM

TGGGG [d(TG4)4 quadruplex]
Kd ([1]; Ka 2.5e6 M^-1): 400 nM

TTGGGGTTGGGGTTGGGGTTGGGG [(TET4)4 quadruplex]
Kd [2]: 370 nM

poly r(G)
Kd ([1]; Ka 4.0e5 M^-1): 2500 nM
